Measured values from patent publication US7288381 (PHADIA, dated 2007).

Biological target: T1, β-gal alone (λgt 11 phage control proteins) (UniProt P00722 2-1024 = β-galactosidase)
T1 construct: Negative control dot; also called β-gal alone (4); λgt 11 phage control proteins (4)
Assay: dot blot of β-gal fusion proteins, anti-human Fab detection
Protocol: Expression of Recombinant Fragments of the Phl p 2 Allergen for Mapping of the Binding Sites of the Human IgE Fabs Lambda gt11 phage clones expressing β-galactosidase fused complete Phl p 2 and Phl p 2 fragments were generated as described (8). E. coli Y1090 were plated as confluent lawn onto LB plates containing 100 mg/l ampicillin (19). Two µl aliquots of phage lysates containing >10^6 plaque-forming units of each phage clone were dotted onto the E. coli lawn in defined order and plates were incubated at 43° C. until plaques became visible. The synthesis of recombinant protein was induced by overlay with 10 mM IPTG-soaked nitrocellulose filters (Schleicher& Schuell, Dassel, Germany) for additional 4 hours The clones which reacted with the IgE Fabs were identified by immunoscreening. For this purpose filters were washed twice for 5 min and once for 30 min with TBST containing 0.5% w/v BSA at roomtemperature and then probed overnight with E. coli extracts containing anti-Phl p 2 Fab and, for control purposes, with extracts from E. coli transformed with the empty pComb 3H plasmid at 4° C. After washing, the Fabs were detected with an alkaline phospatase-coupled goat anti-human Fab antiserum diluted 1:5000 in TBST/0.5% w/v BSA.
A Recombinant Fragment Comprising the N-terminal 64 Amino Acids of Phl p 2 Contains the Binding Site for the IgE Fabs In order to determine the binding site for the rPhl p 2-specific IgE Fabs, nitrocellulose-dotted complete β-gal-fused rPhl p 2 allergen (96 aa), a N-terminal rPhl p 2 fragment comprising the first 64 aa portion (1-64) and a 69 aa long C-terminal rPhl p 2 fragment (28-96 aa) were exposed to the Fabs (FIG. 2A). […] The N-terminal and C-terminal fragment have been indicated in the model (FIG. 2B).

T1 sequence (P00722 2-1024 limits assumed): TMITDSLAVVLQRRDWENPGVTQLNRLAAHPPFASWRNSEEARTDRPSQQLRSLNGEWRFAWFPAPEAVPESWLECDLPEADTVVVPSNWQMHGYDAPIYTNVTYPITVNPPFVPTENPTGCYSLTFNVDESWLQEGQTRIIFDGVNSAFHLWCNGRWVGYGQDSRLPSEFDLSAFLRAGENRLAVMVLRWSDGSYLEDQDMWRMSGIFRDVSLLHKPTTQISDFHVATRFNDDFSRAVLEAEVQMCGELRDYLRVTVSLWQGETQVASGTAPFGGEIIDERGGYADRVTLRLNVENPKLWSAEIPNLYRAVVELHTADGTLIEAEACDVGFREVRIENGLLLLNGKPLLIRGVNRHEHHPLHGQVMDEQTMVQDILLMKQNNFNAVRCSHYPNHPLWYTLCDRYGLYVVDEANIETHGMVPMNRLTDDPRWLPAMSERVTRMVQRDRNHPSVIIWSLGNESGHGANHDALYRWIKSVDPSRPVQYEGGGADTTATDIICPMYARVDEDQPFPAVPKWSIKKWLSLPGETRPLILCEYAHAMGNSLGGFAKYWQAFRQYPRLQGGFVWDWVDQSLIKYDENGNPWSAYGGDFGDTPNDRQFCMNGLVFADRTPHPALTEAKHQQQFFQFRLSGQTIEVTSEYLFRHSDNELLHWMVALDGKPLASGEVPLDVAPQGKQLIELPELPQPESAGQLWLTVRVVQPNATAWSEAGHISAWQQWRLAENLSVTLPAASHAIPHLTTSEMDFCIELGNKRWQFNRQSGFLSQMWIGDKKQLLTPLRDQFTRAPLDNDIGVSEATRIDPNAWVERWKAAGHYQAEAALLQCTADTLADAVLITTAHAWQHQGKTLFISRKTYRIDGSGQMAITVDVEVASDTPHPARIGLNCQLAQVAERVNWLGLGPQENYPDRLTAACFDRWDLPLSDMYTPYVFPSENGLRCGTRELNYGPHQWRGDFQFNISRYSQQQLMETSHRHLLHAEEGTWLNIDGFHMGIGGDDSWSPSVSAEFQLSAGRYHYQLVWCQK

Binder	binding result
Phl p 2-specific human IgE Fab, clone 94 (Fab, V domains shown, Human IgE Fab (heavy chain fragment Fd plus kappa light chain) expressed from pComb3H in E. coli and used as bacterial extract; they start at the Xho I / Sac I cloning sites; also called clone 94-derived IgE Fab; rPhl p 2-specific IgE Fab) VH: LESGPGLVKPAQTLSLSCAVSGGSIRSGGYYWSWIRQHPGKGLEWIGYIYHSGNTYYNPSLKSRIAMSVDTSENKFSLRLNSVTAADTAVYYCARLDGYTLDIWGQGTLVTVSS VL: ELTQSPSSLSASVGDRVTISCRASQRINTYLNWYQHKPGKAPKLLIYAASSLQSGVPSRFSGSGYGTDFTLTISSLQFEDFASYYCQESLSASYTFGQGTKVEIKR	no binding
Phl p 2-specific human IgE Fab, clone 60 (Fab, V domains shown, Human IgE Fab (Fd plus kappa light chain) expressed from pComb3H in E. coli and used as bacterial extract; also called rPhl p 2-specific IgE Fab; anti-Phl p 2 Fab) VH: LESGPGLVKPSQTLSLTCTVSGGSIRSGGYYWSWVRQPPGKGLEWIGNIYHSGNTYYNPSLKSRITMSVDTSKNHFSLRLTSVTAADTAVYYCARSDGYTLDNWGQGTLVTVSS VL: ELTQSPSSLSASVGDRVTITCRARQSISTYLNWYQQKPGKAPKLLIWSASNLQSGVPSRFSGSGSGTEFTLTISNLQFEDFASYYCQQSYTTLYTFGSGTKLEIKR	no binding
Phl p 2-specific human IgE Fab, clone 100 (Fab, V domains shown, Human IgE Fab (Fd plus kappa light chain) expressed from pComb3H in E. coli and used as bacterial extract; also called rPhl p 2-specific IgE Fab; anti-Phl p 2 Fab) VH: LESGPGLVKPSQTLSLTCTVSGGSIRSGGYYWSWIRQPPGKGLEWIGYIYHSGNTYYNPSLKSRVTMSVDTSKNHFSLRLSSVTAADTAVYYCARSDGYTLDNWGQGTLVTVSS VL: ELTQSPSSVSASVGDRVTITCRASQGISSWLAWYQHQPGKAPKLLIYSASSLQSGVPSRFSGSGYGTDFSLTISSLQFEDSATYYCQQANSFPYTFGQGTKVEIKR	no binding
